In article PMC10671530, “Linking New Alleles at the Oscillator Loci to Flowering and Expansion of Asian Rice”:

B1: OsPRR1-p3 (EE probe) (dsDNA)
DNA 1: CATCTGGCTTAACCACGCCCGGCTCTC
DNA 2: GAGAGCCGGGCGTGGTTAAGCCAGATG
B2: OsPRR1-p2 (EE probe) (dsDNA)
DNA 1: GTTTCGTTTATTACACCGCCCCGG
DNA 2: CCGGGGCGGTGTAATAAACGAAAC
B3: probe 9 (OsPRR1_a, 12-nt deletion) (dsDNA)
DNA 1: CCAACGCCGCCGCCGC
DNA 2: GCGGCGGCGGCGTTGG
B4: OsPRR1-p1 (EE probe) (dsDNA)
DNA 1: GTAGGGGGAGGAAAATATCCTGTGCCAGTAG
DNA 2: CTACTGGCACAGGATATTTTCCTCCCCCTAC

Molecular target: OsCCA1 DNA-binding (R/MYB) domain (Oryza sativa (cDNA of Heidao), UniProt A0A0P0XBU0 1-138)
Sequence (A0A0P0XBU0 1-138): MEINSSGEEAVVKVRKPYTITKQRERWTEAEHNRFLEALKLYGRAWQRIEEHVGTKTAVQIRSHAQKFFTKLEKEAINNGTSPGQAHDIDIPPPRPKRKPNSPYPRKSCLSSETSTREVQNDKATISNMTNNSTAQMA
Test: EMSA; EMSA: 10 uL with 2 uL 5x binding buffer (Invitrogen), 1.3 ug protein, 20 pmol probe, 23 C, 20 min; 10% native PAGE, 100 V about 70 min; gel stained for DNA and
Conditions: protein: recombinant; (pCold vector, Ni Sepharose)

Row | Binder | binding result
1 | B1 | binds
2 | B2 | binds
3 | B3 | no binding
4 | B4 | binds
